Where only a bound is given, the exact number is not on record here.

The values below come from patent publication US4496689A, “Covalently attached complex of alpha-1-proteinase inhibitor with a water soluble polymer” (Miles Laboratories, Inc., priority 1983, dated 1985).

Data set [1] deals with Antiserum (rabbit anti-human) to alpha-l-proteinase inhibitor. Description: Precipitin reaction with rabbit antiserum to the unmodified protein. Particulars: for Precipitin Reaction: rabbit antiserum dil. 1:2; for Amount of protein needed to obtain a strong precipitin reaction: rabbit antiserum to the unmodified protein. The data set is classed as binding. The method, then: Antiserum (rabbit anti-human) to alpha-l-proteinase inhibitor was obtained from Miles Laboratories (Elkhart, IN).
For unmodified alpha-1-proteinase inhibitor, only 0.092 μg of protein was sufficient to obtain a strong precipitin reaction. For the 0.117 moles dextran/mole alpha-1-proteinase inhibitor conjugate, 14.5 μg of alpha-1-proteinase inhibitor was needed to elicit a similar response--a very significant increase of antigen concentration. For the 0.585 moles dextran/mole alpha-1-proteinase inhibitor conjugate increase of antigen concentration up to 29.0 μg was not sufficient to obtain a strong precipitin reaction with the antiserum.

Data set [2] deals with T1, Porcine pancreatic elastase type III (Sus scrofa, UniProt P00772).
T1 construct: purchased Sigma Chemicals Co. (St. Louis, MO)
In words: Elastase inhibitory capacity (EIC) assay with chromogenic substrate SA3 pNA. The format is biochemical. As to conditions: for % EIC Recovered: recovery across covalent coupling. From the text:
Porcine pancreatic elastase type III and chromogenic substrate N-succinyl-L-anlanyl-L-alanyl-L-alanyl-p-nitroanilide (SA3 pNA) were obtained from Sigma Chemicals Co. (St. Louis, MO). Hydrolysis of the chromogenic substrate by the elastase liberates p-nitroaniline which gives a yellow color whose absorbance is measurable spectrophotometrically (Model 1084 UV Spectrophotometer, Gilford Instruments, Oberlin, OH) at 405 nm.
Comparisons of the linear changes of absorbance with time both in the presence and in the absence of sample alpha-l-proteinase inhibitor and of sample alpha-l-proteinase inhibitor-dextran covalent complex were made. The amount of inhibitor was then calculated based on the known molecular weights of the elastase and alpha-l-proteinase inhibitor, on the known 1:1 stoichrometry, and on the known amount of elastase used. A pool of normal human plasma (>1000 donors) was used as the standard and assigned a value of 1 μ/ml of α1 PI.

The target in data set [3] is T2, elastase (Sus scrofa, UniProt P00772).
T2 construct: purchased Sigma Chemicals Co. (St. Louis, MO)
In words: pH stability (pH 3.0), recovery of EIC. The format is physicochemical, porcine. As to conditions: pH 3.0 for 24 hours at +5° C.; for Recovery of EIC as % of Control After Adjustment to pH 7.4, Incubation Time 24 hrs. (5° C.): back to pH 7.40, further 24 hrs. at 5° C.; for Recovery of EIC as % of Control After Adjustment to pH 7.4, Immediate: then back to pH 7.40, assayed immediately. The method, then: In order to investigate the pH stability of these preparations, experimental samples were adjusted to pH 3.0 with controls at pH 7.40 and incubated for 24 hours at +5° C. Following this, pH was adjusted back up to 7.40 for the experimental samples and EIC assays carried out immediately. Samples were further incubated for 24 hours at +5° C. and reassayed.

Data set [4] addresses T1, Porcine pancreatic elastase type III. In words: Association rate constant (kassoc) between enzyme and inhibitor. The data set is classed as biochemical. Particulars: for t0.5 (half life of the enzyme-inhibitor association reaction) / kassoc, rate constant for the association between the enzyme and the inhibitor: equimolar enzyme and inhibitor, 3.37×10^-7, 37° C., pH 7.4; for kassoc, rate constant for the association between the enzyme and the inhibitor: calculated by equation (4); for Initial Reac. Rate: 37° C. The method, then:
Association constants (kassoc) between the enzyme (E) and the inhibitor (I) were determined as follows: 25 μl each of equimolar amounts of the enzyme and the inhibitor were incubated at 37° C. with 1950 μl of buffer (0.05M TRIS, 0.15M NaCl, pH 7.4) (TRIS® is tris(hydroxymethyl)amino methane, supplied by Sigma, St. Louis, Mo.) to obtain a resultant concentration of 3.37×10^-7. At various times, a 200 μl aliquot of the enzyme-inhibitor solution was added to 780 μl buffer and 20 μl substrate (SA3 pNA) (60 mM) and the hydrolysis rate followed in the temperature controlled (37° C.) cuvette with a recorder (Model 6051, Gilford Instruments, Oberlin, Ohio) attachment. During hydrolysis no further enzyme-inhibitor association was assumed (5 fold dilution compared to preincubation) and the initial reaction rate (v) was indicative of the free enzyme (E) present at the end of the respective preincubation times. Enzyme inhibitor association is represented as: [formula] for kdissoc .perspectiveto.0 and equimolar concentrations of E and I we get
With initial conditions t=0, E=Eo (all free enzyme) equation (2) integrates to
By defining half life of the reaction t0.5 to be at E=0.5Eo we get
The initial reaction rate (Δ absorbance/5 minutes) depicts the hydrolysis rate of the substrate by the free enzyme present following the respective preincubation time. Initial reaction rate, in the absence of the inhibitor, was determined and the time required for this rate to decrease to half of its original value (t0.5) was calculated. Equation (4) was subsequently used to calculate kassoc for each of the 3 cases.

The test system of a further data set is porcine elastase. Particulars: each at 1.4×10^-8 M; Beatty et al, J. Biol. Chem., 255, 3931 (1980); cited from earlier work.
In data set [5] the target is T2, elastase. Description: Oxidative inactivation by H2O2, recovery of EIC. The format is physicochemical, porcine. As to conditions: 0-28 mM H2O2, 37° C., 1 hour, pH 7.4 (FIG. 2). The method, then: Hydrogen peroxide (30% solution, Sigma Chemicals) was used as the oxidation agent to investigate the effect of 0-28 mM H2 O2 on the recovery of elastase inhibitory capacity (EIC) following incubation at 37° C. for 1 hour.
FIG. 2 (oxidation at pH 7.4) depicts the effects of various concentrations of H2 O2 on the samples. […] It is to be understood that any antioxidant enzyme may be used, e.g. catalase or an equivalent enzyme such as superoxide dismutase.

The target of data set [6] is T2, elastase. Description: Heat stability at 60° C., EIC readout. The format is physicochemical, porcine. As to conditions: within 60 minutes (FIG. 1). The method, then: Alpha-1-proteinase inhibitor and its dextran conjugates, with and without added beef liver catalase as antioxidant, were heated in closed tubes at 60±0.2° C. The tubes were preheated and due to large mass difference the samples reached the bath temperature in less than 60 seconds. At designated time intervals samples were withdrawn and instantaneously cooled down (by ice bath) to room temperature prior to assay.
A significant difference here is observed between the native protein and its conjugates.

For data set [7] the following is noted: bovine liver catalase modified with methoxypolyethylene glycol; Abuchowski et al; cited from earlier work.

T2 sequence (P00772 27-266): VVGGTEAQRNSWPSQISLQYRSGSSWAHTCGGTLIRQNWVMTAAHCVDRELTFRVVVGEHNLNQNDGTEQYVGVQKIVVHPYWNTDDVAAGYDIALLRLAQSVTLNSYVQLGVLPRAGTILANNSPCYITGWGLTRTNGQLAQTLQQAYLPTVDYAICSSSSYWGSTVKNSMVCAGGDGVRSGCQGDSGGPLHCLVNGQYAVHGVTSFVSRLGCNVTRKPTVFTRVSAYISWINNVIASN
T1 sequence (P00772 27-266): as above

“4: alpha-1-proteinase inhibitor-dextran complex, dextran mol. wt. 10,300, 100 mg inhibitor per gram of dextran, ratio 0.117 [Example 4]”: the “Precipitin Reaction” value in data set [1] (antigen conc. 14.5 μg) is given as “Strong”. For the same molecule, the “Amount of protein needed to obtain a strong precipitin reaction” value (shortened to “Amount of protein needed”) in data set [1] is 14.5 µg. Moreover, the “% EIC Recovered” value in data set [2] worked out at 28.8%. Also, in the data set with elastase [3], the “Recovery of EIC as % of Control After Adjustment to pH 7.4, Incubation Time 24 hrs. (5° C.)” value was determined as 81%. Also, the “Recovery of EIC as % of Control After Adjustment to pH 7.4, Immediate” value in the data set with elastase [3] was 68%. Moreover, the “t0.5 (half life of the enzyme-inhibitor association reaction)” value in data set [4] amounted to 21.49 s. For the same molecule, the “kassoc, rate constant for the association between the enzyme and the inhibitor” value in data set [4] was 141000 M⁻¹ s⁻¹. The “Initial Reac. Rate” value in data set [4] (preincubation time 20 secs.) is 0.450 Δ absorbance/5 minutes; in data set [4] (preincubation time 45 secs.), 0.285 Δ absorbance/5 minutes; in data set [4] (preincubation time 75 secs.), 0.195 Δ absorbance/5 minutes; in data set [4] (preincubation time 120 secs.), 0.130 Δ absorbance/5 minutes.
On to “5: alpha-1-proteinase inhibitor-dextran complex, dextran mol. wt. 10,300, 20 mg inhibitor per gram of dextran, ratio 0.585 [Example 5]”, for which the “Precipitin Reaction” value in data set [1] (antigen conc. 1.95 μg) and in data set [1] (antigen conc. 29.0 μg) was “Weak” throughout. Besides, in data set [1], the “Amount of protein needed” value is over 29.0 µg. Further, in data set [2], the “% EIC Recovered” value is given as 18.4%. Moreover, the “Recovery of EIC as % of Control After Adjustment to pH 7.4, Immediate” value with elastase [3] is listed as 55%. Moreover, the “t0.5 (half life of the enzyme-inhibitor association reaction)” value in data set [4] worked out at 34.67 s. For the same molecule, in data set [4], the “kassoc, rate constant for the association between the enzyme and the inhibitor” value was 85600 M⁻¹ s⁻¹. Moreover, the “Initial Reac. Rate” value in data set [4] (preincubation time 25 secs.) is reported as 0.495 Δ absorbance/5 minutes; in data set [4] (preincubation time 65 secs.), 0.285 Δ absorbance/5 minutes; in data set [4] (preincubation time 100 secs.), 0.205 Δ absorbance/5 minutes; in data set [4] (preincubation time 145 secs.) it was 0.135 Δ absorbance/5 minutes.
Regarding “Native α1 PI: human plasma glycoprotein alpha-1-proteinase inhibitor, molecular weight 53,000, purified from Cohn Fraction IV-1”, the kassoc in the data set on porcine elastase is 1×10^5 M^-1 sec.^-1. In addition, the “Precipitin Reaction” value in data set [1] (antigen conc. 0.092 μg) is “Strong”. Besides, the “Amount of protein needed” value in data set [1] was found to be 0.092 µg. Besides, the “Effect of H2O2 oxidation on EIC” value with elastase [5] is “significant progressive loss of EIC”. For the same molecule, in data set [2] (purified from Cohn Fraction IV-1), the “Elastase inhibitory capacity/mg total protein” value is recorded as 1.5. For the same molecule, in the data set with elastase [6], the “Loss of initial activity (EIC) on heating” value is given as over 90%. Moreover, the “Recovery of EIC as % of Control After Adjustment to pH 7.4, Incubation Time 24 hrs. (5° C.)” value with elastase [3] is listed as 66%. Besides, the “kassoc, rate constant for the association between the enzyme and the inhibitor” value in data set [4] and in data set [4] (listed as native protein) was 185000 M⁻¹ s⁻¹ throughout. Moreover, the “Initial Reac. Rate” value in data set [4] (preincubation time 15 secs.) is listed as 0.460 Δ absorbance/5 minutes; in data set [4] (preincubation time 30 secs.), 0.310 Δ absorbance/5 minutes; in data set [4] (preincubation time 60 secs.) it was 0.173 Δ absorbance/5 minutes; in data set [4] (preincubation time 65 secs.), 0.170 Δ absorbance/5 minutes; in data set [4] (preincubation time 90 secs.), 0.128 Δ absorbance/5 minutes.

B1: PEG-1900-catalase: bovine liver catalase covalently modified with methoxypolyethylene glycol of 1900 daltons using cyanuric chloride (Abuchowski et al) (conjugate, UniProt P00432 2-527, looked up)
Catalase: ADNRDPASDQMKHWKEQRAAQKPDVLTTGGGNPVGDKLNSLTVGPRGPLLVQDVVFTDEMAHFDRERIPERVVHAKGAGAFGYFEVTHDITRYSKAKVFEHIGKRTPIAVRFSTVAGESGSADTVRDPRGFAVKFYTEDGNWDLVGNNTPIFFIRDALLFPSFIHSQKRNPQTHLKDPDMVWDFWSLRPESLHQVSFLFSDRGIPDGHRHMNGYGSHTFKLVNANGEAVYCKFHYKTDQGIKNLSVEDAARLAHEDPDYGLRDLFNAIATGNYPSWTLYIQVMTFSEAEIFPFNPFDLTKVWPHGDYPLIPVGKLVLNRNPVNYFAEVEQLAFDPSNMPPGIEPSPDKMLQGRLFAYPDTHRHRLGPNYLQIPVNCPYRARVANYQRDGPMCMMDNQGGAPNYYPNSFSAPEHQPSALEHRTHFSGDVQRFNSANDDNVTQVRTFYLKVLNEEQRKRLCENIAGHLKDAQLFIQKKAVKNFSDVHPEYGSRIQALLDKYNEEKPKNAVHTYVQHGSHLSAREKANL
modifications: mPEG 1900
For B1, the Retained enzymatic activity in data set [7] is on record as 93%.

B2: PEG-5000-catalase: bovine liver catalase covalently modified with methoxypolyethylene glycol PEG-5000 using cyanuric chloride (Abuchowski et al) (conjugate, UniProt P00432 2-527, looked up)
Catalase: B1 Catalase
modifications: mPEG 5000
Turning to B2, in data set [7], the Retained enzymatic activity is reported as 95%.
